# From patent US12583895B2, “Polypeptides for restoring endothelial function and methods of use thereof” (Vanderbilt University, priority 2019, dated 2026)
# “Also recorded” adds a separate entry of the source. Non-standard residues stand in square brackets, D forms with d. No end group written: not given here. pS = N[C@@H](COP(=O)(O)O)C(=O)O
# What was measured:
# FGFR1 = FGFR1 (Homo sapiens, UniProt P11362); experiment: SelectScreen kinase profiling; assay type: biochemical; details: NiPp 100 μM; kinases inhibited at >40% are listed
# Method: (§1) Kinase profiling. NiPp was dissolved in DMSO, screened at a single concentration of 100 μM using in vitro kinase assays (SelectScreen Kinase Profiling Service; ThermoFisher Scientific, Madison WI) including the Z'LYTE and Adapta kinase activity assays and the LanthaScreen Eu Kinase Binding Assay). Candidate interactions were predicted using STRING Version 11 (www.string-db-org) with the human database at confidence=0.7.
# (§2) As injury leads to increased p38 MAPK phosphorylation and decreased Niban phosphorylation, one of the mechanisms by which NiPp restores function after endothelial injury can be kinase inhibition. A kinase profiling was performed using three different profiling platforms that measure activity and kinase/substrate binding. Kinases of which activity or substrate binding were inhibited by NiPp (100 μM) at >40% are listed and shown in a kinase dendrogram (FIGS. 14A, 14B, 19A and 19B).
# (§3) The top two candidate kinase targets of NiPp were mitogen- and stress-activated kinase 1 (MSK1; also known as RPS6KA5) and p38 MAPKα (MAPK14), which were inhibited by 66% and 61%, respectively. MSK1 is an AGC kinase of the RSK family that is phosphorylated by ERK and p38 MAPK in response to cellular stress. Other kinases inhibited by the NiPp include CKD18 of the CMGC kinase family), FGFR1 of the TK family, and the PIK3R3 kinase (FIGS. 19A and 19B).
# PIK3R3 kinase = PIK3R3 kinase (Homo sapiens, UniProt Q92569); experiment: SelectScreen kinase profiling; assay type: biochemical; details: NiPp 100 μM; kinases inhibited at >40% are listed
# Method: as §1, §2, §3
# CKD18 = CKD18 (Homo sapiens, UniProt Q07002); experiment: SelectScreen kinase profiling; assay type: biochemical; details: NiPp 100 μM; kinases inhibited at >40% are listed
# Method: as §1, §2, §3
# p38 MAPK phosphorylation = p38 MAPK phosphorylation (Western blot) in anisomycin-treated rat aorta; assay type: cell-based; details: NiPp 500 μM 30 min pretreatment, then anisomycin 200 μM 1 h, immunoblot
# Method: (§4) RA rings were suspended in a muscle bath and incubated with either buffer alone (Ctrl), Aniso (200 μM) for 1 h, or NiPp (500 μM) for 30 min followed by Aniso (200 μM) for 1 h. […] Proteins were extracted […] immunoblotted to examine p38MAPK phosphorylation. Quantification of relative phosphorylation to total p38MAPK level is shown. n=10, *p<0.05 in one-way ANOVA with Tukey post-test. NiPp restores endothelial dysfunction and reduced p38 MAPK phosphorylation induced by anisomycin in RA.
# (§5) RA rings were suspended in a muscle bath and incubated with either buffer alone (Ctrl), Aniso (200 μM) for 1 h, or NiPp (500 μM) for 30 min followed by Aniso (200 μM) for 1 h. […] The force generated was determined and was adjusted to the weight and length of the tissue. […] Proteins were extracted and phosphorylation of p38 MAPK was determined by Western blot analysis. […] Data are expressed as mean±SD.
# p38 MAPK activation with Anisomycin. […] After treatments, endothelial-dependent relaxation was determined or tissues were snap-frozen for Western blot analysis.
# Western blot Analysis. […] The protein-antibody complexes were visualized and quantified using the Odyssey Infrared Imaging System. Phosphorylation was calculated as a ratio of the phosphorylated protein to total protein and was then normalized to the untreated tissues (Ctrl) with the control value set as 1.0.
# rat aorta = experiment: Carbachol-induced relaxation of anisomycin-treated rat aorta; assay type: cell-based; details: NiPp 500 μM 30 min pretreatment, then anisomycin 200 μM 1 h
# Method: as §4
# as §5, with “tissue. Representative tracings from 1 out of 6 different rats are shown.” for “tissue.”, “mean±SD. […]” for “mean±SD.”
# This produced the maximal force tension relationship as previously described. […] Contractile responses were defined by stress, calculated using force generated by tissues as follows: stress (×10^5 N/m^2)=force (g)×0.0987/area, where area=wet weight (mg)/at maximal length (mm)]/1.055.
# Relaxation was calculated as percent change in stress compared to the maximal PE-induced contraction (set as 100%). […]
# PIK3R3 kinase, sequence (P42336 whole entry partner): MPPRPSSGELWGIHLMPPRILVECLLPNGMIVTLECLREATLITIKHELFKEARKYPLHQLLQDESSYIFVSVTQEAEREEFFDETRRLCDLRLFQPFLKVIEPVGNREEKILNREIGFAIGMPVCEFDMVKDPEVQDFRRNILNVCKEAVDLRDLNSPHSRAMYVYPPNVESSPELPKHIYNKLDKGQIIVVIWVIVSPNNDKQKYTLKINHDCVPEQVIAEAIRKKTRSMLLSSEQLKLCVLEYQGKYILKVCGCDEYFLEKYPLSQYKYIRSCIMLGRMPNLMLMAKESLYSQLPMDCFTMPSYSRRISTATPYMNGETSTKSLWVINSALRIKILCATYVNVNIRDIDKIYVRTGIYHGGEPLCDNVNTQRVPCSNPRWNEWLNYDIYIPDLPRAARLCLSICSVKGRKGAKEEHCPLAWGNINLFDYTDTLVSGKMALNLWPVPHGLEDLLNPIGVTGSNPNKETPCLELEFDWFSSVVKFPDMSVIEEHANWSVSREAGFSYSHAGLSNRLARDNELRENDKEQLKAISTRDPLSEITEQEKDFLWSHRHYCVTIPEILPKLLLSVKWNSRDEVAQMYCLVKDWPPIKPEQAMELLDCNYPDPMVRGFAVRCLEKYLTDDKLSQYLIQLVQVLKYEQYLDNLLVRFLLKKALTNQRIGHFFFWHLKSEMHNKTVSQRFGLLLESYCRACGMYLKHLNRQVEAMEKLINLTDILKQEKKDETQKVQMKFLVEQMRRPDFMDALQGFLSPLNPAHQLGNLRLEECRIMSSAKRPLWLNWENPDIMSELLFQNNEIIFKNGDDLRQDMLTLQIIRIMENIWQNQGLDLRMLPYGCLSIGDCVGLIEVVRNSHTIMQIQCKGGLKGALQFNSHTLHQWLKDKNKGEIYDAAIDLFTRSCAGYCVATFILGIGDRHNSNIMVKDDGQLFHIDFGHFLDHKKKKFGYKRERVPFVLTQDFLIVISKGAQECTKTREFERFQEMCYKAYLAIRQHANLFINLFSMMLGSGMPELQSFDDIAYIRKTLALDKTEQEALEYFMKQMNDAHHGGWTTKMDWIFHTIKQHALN
# CKD18, sequence (Q07002 whole entry): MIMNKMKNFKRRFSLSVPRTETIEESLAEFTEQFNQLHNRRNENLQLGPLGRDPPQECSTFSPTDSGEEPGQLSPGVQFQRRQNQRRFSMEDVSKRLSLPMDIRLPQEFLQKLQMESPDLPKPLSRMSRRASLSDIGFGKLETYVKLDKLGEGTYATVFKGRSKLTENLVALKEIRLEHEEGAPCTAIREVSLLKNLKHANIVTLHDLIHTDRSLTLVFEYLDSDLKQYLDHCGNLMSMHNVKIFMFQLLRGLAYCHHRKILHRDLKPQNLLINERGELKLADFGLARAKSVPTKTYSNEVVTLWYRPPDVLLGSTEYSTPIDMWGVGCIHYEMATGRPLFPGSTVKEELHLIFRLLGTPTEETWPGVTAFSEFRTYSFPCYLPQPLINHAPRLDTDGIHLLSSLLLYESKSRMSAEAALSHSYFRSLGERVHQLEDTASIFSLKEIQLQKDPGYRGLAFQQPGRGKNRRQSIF
# CKD18, sequence (Q8ND76 whole entry partner): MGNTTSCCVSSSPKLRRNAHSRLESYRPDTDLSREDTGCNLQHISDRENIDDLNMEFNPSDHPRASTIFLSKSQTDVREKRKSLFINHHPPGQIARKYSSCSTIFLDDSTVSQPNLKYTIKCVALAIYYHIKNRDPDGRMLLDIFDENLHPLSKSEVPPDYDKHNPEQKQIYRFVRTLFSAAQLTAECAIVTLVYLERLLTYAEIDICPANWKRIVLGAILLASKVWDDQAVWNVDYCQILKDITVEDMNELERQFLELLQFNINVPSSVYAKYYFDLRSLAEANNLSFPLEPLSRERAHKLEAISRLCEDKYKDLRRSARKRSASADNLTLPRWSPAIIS
# FGFR1, sequence (P11362 22-822): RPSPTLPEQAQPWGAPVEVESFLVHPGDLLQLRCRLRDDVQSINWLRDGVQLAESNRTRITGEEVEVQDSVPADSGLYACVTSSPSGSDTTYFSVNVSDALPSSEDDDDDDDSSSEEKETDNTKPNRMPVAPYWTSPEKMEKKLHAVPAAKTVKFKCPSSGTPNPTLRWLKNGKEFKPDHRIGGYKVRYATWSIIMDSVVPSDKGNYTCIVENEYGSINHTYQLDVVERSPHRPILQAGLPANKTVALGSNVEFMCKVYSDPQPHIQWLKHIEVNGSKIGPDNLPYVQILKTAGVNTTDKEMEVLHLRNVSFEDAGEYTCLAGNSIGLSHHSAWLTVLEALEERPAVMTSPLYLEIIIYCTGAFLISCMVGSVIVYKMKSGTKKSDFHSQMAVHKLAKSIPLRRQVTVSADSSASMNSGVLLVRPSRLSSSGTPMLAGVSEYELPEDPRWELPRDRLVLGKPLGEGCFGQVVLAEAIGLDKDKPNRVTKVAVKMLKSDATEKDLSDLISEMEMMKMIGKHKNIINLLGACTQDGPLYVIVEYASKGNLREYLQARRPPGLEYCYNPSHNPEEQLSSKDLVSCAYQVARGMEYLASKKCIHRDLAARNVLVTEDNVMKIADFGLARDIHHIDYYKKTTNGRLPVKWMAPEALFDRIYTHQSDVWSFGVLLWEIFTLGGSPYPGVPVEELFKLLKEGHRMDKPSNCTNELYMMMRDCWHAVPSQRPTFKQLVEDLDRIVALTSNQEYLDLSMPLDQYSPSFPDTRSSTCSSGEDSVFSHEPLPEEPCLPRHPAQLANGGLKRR
substance,measurement,setting,value
"YARAAARQARASPAARRA(pS)AILPG (YARAAARQARASPAARRA[pS]AILPG) [NiPp, Cell-permeant phosphopeptide mimetic of Niban: transduction domain … conjugated to the region surrounding serine 602 of Niban]",inhibition of FGFR1,FGFR1,inhibited
same,inhibition of PIK3R3 kinase,PIK3R3 kinase,inhibited
same,inhibition of CKD18,CKD18,inhibited
same,anisomycin-induced p38 MAPK phosphorylation relative to total p38 MAPK,p38 MAPK phosphorylation,decreased; also recorded: reduced; also recorded: prevented
same,endothelial-dependent relaxation (5×10^−7 M CCH) in anisomycin-treated rat aorta,rat aorta,improved; also recorded: prevented; also recorded: restores
